The record followed here is PMC7010359, “High-resolution crystal structures of Escherichia coli FtsZ bound to GDP and GTP” (Acta Crystallographica. Section F, Structural Biology …, 2020).

This data set concerns the molecule itself. Kind of data set: crystal structure; hanging-drop vapor diffusion, 298 K, protein at 37 mg/ml with 1 mM GDP (1.35 Å) or 30 mg/ml with 1 mM GTP (1.40 Å); space group P2(1), one molecule in the asymmetric unit; filament generated by crystal packing.

B1: E. coli FtsZ(L178E), truncated to the globular domain (residues 10-316) (domain or fragment, E. coli K-12, UniProt P0A9A6 10-316, looked up)
chain: DAVIKVIGVGGGGGNAVEHMVRERIEGVEFFAVNTDAQALRKTAVGQTIQIGSGITKGLGAGANPEVGRNAADEDRDALRAALEGADMVFIAAGMGGGTGTGAAPVVAEVAKDLGILTVAVVTKPFNFEGKKRMAFAEQGITELSKHVDSLITIPNDKLLKVLGRGISELDAFGAANDVLKGAVQGIAELITRPGLMNVDFADVRTVMSEMGYAMMGSGVASGEDRAEEAAEMAISSPLLEDIDLSGARGVLVNITAGFDLRLDEFETVGNTIRAFASDNATVVIGTSLDPDMNDELRVTVVATGIG
notes: FtsZ, E. coli K-12, globular domain, residues 10-316, with the mutation L178E; expressed from pET-11; Crystallized with 1 mM GDP (PDB 6umk) or 1 mM GTP (PDB 6unx); No tag is mentioned; One molecule in the asymmetric unit; the protofilament arises from crystal packing; also called EcFtsZ(L178E); source: E. coli BL21(DE3), purified (ammonium sulfate precipitation, Resource Q anion exchange)
In the case of B1, the binding result is on record as “binds”.
